Values quoted from earlier work in publication PMC4856733.

Target: vinculin tail tail (Homo sapiens) (UniProt P18206)

Q: For “vinculin head head (from UniProt P18206)”, which Kd is on record?
A: The Kd was < 1 nM.
